± gives the uncertainty stated by the source.
assay: abundance fitness (aPCA) (normalised: wild type 0, dead -1); higher = more abundant; growth selection in yeast, the domain comes from the species named; conditions: Homo sapiens

Row | Substance | abundance fitness
1 | Lipoamide acyltransferase component of branched-chain alpha-keto acid dehydrogenase complex, mitochondrial R199C, P11182 | -0.054 ± 0.065
2 | Lipoamide acyltransferase component of branched-chain alpha-keto acid dehydrogenase complex, mitochondrial R199E, P11182 | 0.088 ± 0.048
3 | Lipoamide acyltransferase component of branched-chain alpha-keto acid dehydrogenase complex, mitochondrial R199G, P11182 | -0.204 ± 0.036
4 | Lipoamide acyltransferase component of branched-chain alpha-keto acid dehydrogenase complex, mitochondrial R199I, P11182 | -0.142 ± 0.09
5 | Lipoamide acyltransferase component of branched-chain alpha-keto acid dehydrogenase complex, mitochondrial R199K, P11182 | -0.033 ± 0.051
6 | Lipoamide acyltransferase component of branched-chain alpha-keto acid dehydrogenase complex, mitochondrial R199L, P11182 | -0.173 ± 0.04
7 | Lipoamide acyltransferase component of branched-chain alpha-keto acid dehydrogenase complex, mitochondrial R199M, P11182 | -0.088 ± 0.088
8 | Lipoamide acyltransferase component of branched-chain alpha-keto acid dehydrogenase complex, mitochondrial R199P, P11182 | -0.784 ± 0.079
9 | Lipoamide acyltransferase component of branched-chain alpha-keto acid dehydrogenase complex, mitochondrial R199Q, P11182 | 0.045 ± 0.045
10 | Lipoamide acyltransferase component of branched-chain alpha-keto acid dehydrogenase complex, mitochondrial R199S, P11182 | -0.08 ± 0.048
11 | Lipoamide acyltransferase component of branched-chain alpha-keto acid dehydrogenase complex, mitochondrial R199T, P11182 | -0.006 ± 0.062
12 | Lipoamide acyltransferase component of branched-chain alpha-keto acid dehydrogenase complex, mitochondrial R199V, P11182 | -0.129 ± 0.044
13 | Lipoamide acyltransferase component of branched-chain alpha-keto acid dehydrogenase complex, mitochondrial R199W, P11182 | -0.117 ± 0.046
14 | Lipoamide acyltransferase component of branched-chain alpha-keto acid dehydrogenase complex, mitochondrial S189A, P11182 | -0.03 ± 0.04
15 | Lipoamide acyltransferase component of branched-chain alpha-keto acid dehydrogenase complex, mitochondrial S189C, P11182 | -0.111 ± 0.071
16 | Lipoamide acyltransferase component of branched-chain alpha-keto acid dehydrogenase complex, mitochondrial S189E, P11182 | -0.001 ± 0.042
17 | Lipoamide acyltransferase component of branched-chain alpha-keto acid dehydrogenase complex, mitochondrial S189F, P11182 | -0.343 ± 0.058
18 | Lipoamide acyltransferase component of branched-chain alpha-keto acid dehydrogenase complex, mitochondrial S189G, P11182 | -0.065 ± 0.039
19 | Lipoamide acyltransferase component of branched-chain alpha-keto acid dehydrogenase complex, mitochondrial S189K, P11182 | -0.135 ± 0.068
20 | Lipoamide acyltransferase component of branched-chain alpha-keto acid dehydrogenase complex, mitochondrial S189L, P11182 | -0.45 ± 0.046
21 | Lipoamide acyltransferase component of branched-chain alpha-keto acid dehydrogenase complex, mitochondrial S189M, P11182 | -0.264 ± 0.061
22 | Lipoamide acyltransferase component of branched-chain alpha-keto acid dehydrogenase complex, mitochondrial S189P, P11182 | -0.232 ± 0.068
23 | Lipoamide acyltransferase component of branched-chain alpha-keto acid dehydrogenase complex, mitochondrial S189Q, P11182 | -0.097 ± 0.054
24 | Lipoamide acyltransferase component of branched-chain alpha-keto acid dehydrogenase complex, mitochondrial S189R, P11182 | -0.09 ± 0.039

Row | Substance | abundance fitness
25 | Lipoamide acyltransferase component of branched-chain alpha-keto acid dehydrogenase complex, mitochondrial S189T, P11182 | -0.033 ± 0.046
26 | Lipoamide acyltransferase component of branched-chain alpha-keto acid dehydrogenase complex, mitochondrial S189V, P11182 | -0.199 ± 0.043
27 | Lipoamide acyltransferase component of branched-chain alpha-keto acid dehydrogenase complex, mitochondrial S189Y, P11182 | -0.258 ± 0.19
28 | Lipoamide acyltransferase component of branched-chain alpha-keto acid dehydrogenase complex, mitochondrial S194A, P11182 | -0.564 ± 0.073
29 | Lipoamide acyltransferase component of branched-chain alpha-keto acid dehydrogenase complex, mitochondrial S194C, P11182 | -0.47 ± 0.045
30 | Lipoamide acyltransferase component of branched-chain alpha-keto acid dehydrogenase complex, mitochondrial S194E, P11182 | -0.504 ± 0.049
31 | Lipoamide acyltransferase component of branched-chain alpha-keto acid dehydrogenase complex, mitochondrial S194F, P11182 | -0.917 ± 0.088
32 | Lipoamide acyltransferase component of branched-chain alpha-keto acid dehydrogenase complex, mitochondrial S194G, P11182 | -0.319 ± 0.052
33 | Lipoamide acyltransferase component of branched-chain alpha-keto acid dehydrogenase complex, mitochondrial S194I, P11182 | -0.738 ± 0.12
34 | Lipoamide acyltransferase component of branched-chain alpha-keto acid dehydrogenase complex, mitochondrial S194K, P11182 | -0.378 ± 0.057
35 | Lipoamide acyltransferase component of branched-chain alpha-keto acid dehydrogenase complex, mitochondrial S194M, P11182 | -0.628 ± 0.082
36 | Lipoamide acyltransferase component of branched-chain alpha-keto acid dehydrogenase complex, mitochondrial S194N, P11182 | -0.287 ± 0.049
37 | Lipoamide acyltransferase component of branched-chain alpha-keto acid dehydrogenase complex, mitochondrial S194P, P11182 | -0.694 ± 0.075
38 | Lipoamide acyltransferase component of branched-chain alpha-keto acid dehydrogenase complex, mitochondrial S194R, P11182 | -0.314 ± 0.037
39 | Lipoamide acyltransferase component of branched-chain alpha-keto acid dehydrogenase complex, mitochondrial S194T, P11182 | -0.013 ± 0.06
40 | Lipoamide acyltransferase component of branched-chain alpha-keto acid dehydrogenase complex, mitochondrial S194V, P11182 | -0.864 ± 0.064
41 | Lipoamide acyltransferase component of branched-chain alpha-keto acid dehydrogenase complex, mitochondrial S194W, P11182 | -0.937 ± 0.069
42 | Lipoamide acyltransferase component of branched-chain alpha-keto acid dehydrogenase complex, mitochondrial T171A, P11182 | -0.215 ± 0.055
43 | Lipoamide acyltransferase component of branched-chain alpha-keto acid dehydrogenase complex, mitochondrial T171C, P11182 | -0.282 ± 0.063
44 | Lipoamide acyltransferase component of branched-chain alpha-keto acid dehydrogenase complex, mitochondrial T171D, P11182 | -0.035 ± 0.073
45 | Lipoamide acyltransferase component of branched-chain alpha-keto acid dehydrogenase complex, mitochondrial T171E, P11182 | -0.268 ± 0.058
46 | Lipoamide acyltransferase component of branched-chain alpha-keto acid dehydrogenase complex, mitochondrial T171F, P11182 | -0.028 ± 0.12
47 | Lipoamide acyltransferase component of branched-chain alpha-keto acid dehydrogenase complex, mitochondrial T171K, P11182 | -0.061 ± 0.069
48 | Lipoamide acyltransferase component of branched-chain alpha-keto acid dehydrogenase complex, mitochondrial T171L, P11182 | -0.632 ± 0.17

— the Human Domainome abundance scans (Beltran et al. 2025)
